According to US20220056118A1 (UNIVERSITY OF BRITISH COLUMBIA, published 2022):

How the values were obtained:
[1] = biological target: T1, DAGWGNLc (SEQ ID NO: 9) peptide conjugated to bovine serum albumin (human; bovine, UniProt P02769 25-607, N-terminus acetylated; C-terminal Cys conjugated to BSA); assay: SPR, peptide-BSA immobilized (about 50 RU), antibody injected, Langmuir 1:1 fit
T1 construct: TDP-43 residues 65-71 plus an added C-terminal cysteine; also called Peptide conjugated to bovine serum albumin (BSA)
Protocol: Surface plasmon resonance (SPR) analysis was used to measure the binding kinetics of monoclonal antibodies to the peptide epitope. Peptide conjugated to bovine serum albumin (BSA) was immobilized at a very low density (approximately 50 RUs) on flow cells of a sensor chip. Purified mouse or rabbit monoclonal antibodies diluted 4-fold from 31.25 nM to 0.24 nM were injected sequentially over the surfaces for approximately 5 min followed by dissociation in buffer and surface regeneration. Binding parameters were calculated using kinetic curve fitting and a Langmuir 1:1 interaction model.

[2] = biological target: T2, HA-tagged wild-type human TDP-43 with the original NLS sequence (WT-TDP43) (human, UniProt Q13148 1-414); assay: immunocytochemistry, transfected HEK293FT cells; column: Binding to nuclear WT TDP-43
T2 construct: whole, on cells; Overexpressed inside transfected HEK293FT cells; also called wildtype TDP-43-HA; WT nuclear TDP-43-HA; not shown: HA tag

[3] = biological target: T3, endogenous TDP-43 of HEK293FT cells (human, UniProt Q13148 1-414); assay: immunocytochemistry, arsenite-stressed HEK293FT cells; column: Binding to stress granules
T3 construct: whole, on cells; Two states of the same protein are tested: nuclear in cells transfected with empty vector, and in the stress granules of cells stressed with sodium arsenite; the state is named in each row; also called endogenous, nuclear WT TDP-43; TDP-43 in physiologic stress granules
T3 sequence (Q13148 whole entry): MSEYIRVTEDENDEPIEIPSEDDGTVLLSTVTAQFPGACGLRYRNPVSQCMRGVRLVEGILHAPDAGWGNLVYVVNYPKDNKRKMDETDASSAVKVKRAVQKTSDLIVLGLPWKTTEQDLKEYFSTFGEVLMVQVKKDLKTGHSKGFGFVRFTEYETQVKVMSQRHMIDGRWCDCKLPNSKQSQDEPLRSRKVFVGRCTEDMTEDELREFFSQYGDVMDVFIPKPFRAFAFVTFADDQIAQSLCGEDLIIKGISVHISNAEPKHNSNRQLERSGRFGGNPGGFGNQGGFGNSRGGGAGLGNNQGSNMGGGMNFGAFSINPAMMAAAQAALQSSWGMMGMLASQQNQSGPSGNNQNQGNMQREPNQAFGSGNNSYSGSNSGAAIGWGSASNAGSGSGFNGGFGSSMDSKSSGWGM

T1 sequence (P02769 25-607 limits assumed): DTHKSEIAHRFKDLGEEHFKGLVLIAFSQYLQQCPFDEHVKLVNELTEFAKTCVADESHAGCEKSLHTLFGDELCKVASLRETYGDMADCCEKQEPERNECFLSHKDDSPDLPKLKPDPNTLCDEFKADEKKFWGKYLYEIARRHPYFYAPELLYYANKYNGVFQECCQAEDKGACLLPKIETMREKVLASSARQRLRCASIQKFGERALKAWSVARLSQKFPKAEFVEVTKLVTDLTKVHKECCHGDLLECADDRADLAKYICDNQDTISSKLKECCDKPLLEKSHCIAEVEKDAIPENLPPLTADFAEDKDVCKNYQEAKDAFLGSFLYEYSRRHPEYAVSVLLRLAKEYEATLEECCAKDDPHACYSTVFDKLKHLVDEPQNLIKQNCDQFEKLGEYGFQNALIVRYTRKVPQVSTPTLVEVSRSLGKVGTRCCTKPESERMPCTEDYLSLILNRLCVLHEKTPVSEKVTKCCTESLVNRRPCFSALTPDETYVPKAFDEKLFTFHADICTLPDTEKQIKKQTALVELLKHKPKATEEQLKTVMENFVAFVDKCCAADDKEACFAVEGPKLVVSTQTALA
T2 sequence (Q13148 whole entry): as the sequence (Q13148 whole entry) above

Binder	Kd [1] [nM]	koff [1] [s⁻¹]	kon [1] [M⁻¹ s⁻¹]	binding result [2]	binding result [3]
rabbit monoclonal antibody 38 (38H1-38K1) (antibody, V domains shown, Recombinant; also called clone 38) VH: QSVEESGGRLVTPGTPLTLTCTVSGFSFSAYYMTWVRQAPGKGLEFIGVTIPIGRTYYASWAKGRFTISKTSTTVHLKITSPTTEDTAAYFCAGGPTGNSHFTLWGQGTLVTVS VL: VMTQTPSSKSVPVGDTVTINCQASESVYNNNQLSWYQQKPGQPPKLLIYQASKLESGVPSRFKGSGSGTQFTLTISDVVCDDAATYYCAGYKSPTTDGIAFGGGTEVVVK				no binding (tested: 10 ug/ml)	no binding (tested: 10 ug/ml)
mouse monoclonal antibody 2F7 (antibody, V domains shown, Mouse hybridoma antibody; also called Mouse 2F7) VH: DVKLVESGGGLVKLGGSLKLSCAASGFTFSSYYMSWVRQTPEKRLELVATINSNGGSTYYPDTVKGRITISRDNAKNTLQLQMSSLRSEDTALYYCVRQNYEGAYWGQGTLVTVSA VL: DVLMTQTPLSLPVTLGDQASISCRSSQSIVHSNGNTYLEWYLQKPGQSPKLLIYKVSNRFSGVPDRFSGSGSGTDFTLKISRVEAEDLGVYYCFQSSHVPWTFGGGTKLEIK	0.622	0.00176	2.83e+06		
mouse monoclonal antibody 3E8 (antibody, V domains shown, Mouse hybridoma antibody; also called Mouse 3E8) VH: DVKLVESGGGLVKLGGSLKLSCAASGFTFSSYYMSWVRQTPEKRLELVATINSNGGSTYYPDTVKGRITISRDNAKNTLQLQMSSLRSEDTALYYCVRQNYEGAYWGQGTLVTVSA VL: DVLMTQTPLSLPVTLGDQASISCRSSQSIVHSNGNTYLEWYLQKPGQSPKLLIYKVSNRFSGVPDRFSGSGSGTDFTLKISRVEAEDLGVYYCFQSSHVPWTFGGGTKLEIK	0.722	0.002	2.77e+06		

More lines, in order of falling Kd [1], values ahead:

Kd [1] [nM]	koff [1] [s⁻¹]	kon [1] [M⁻¹ s⁻¹]	binding result [2]	binding result [3]	Binder
0.0919	4.32e-05	470000			rabbit monoclonal antibody 17 (17H3-17K3) (antibody, V domains shown, Recombinant; also called Rabbit 17; clone 17) VH: QEQLVESGGGLVQPGASLTLTCTASGFSFSSSYVMCWVRQAPGKGLEWITCSDTGINTWYASWAKGRFTISKTSSTTVTLQMTSLTAADTATYFCARRYTGDTYLGNFNLWGQGTLVTVS VL: AQVLTQTPASVSAAVGGTVTINCQASQSVYKNNYLSWYQQKPGQPPKLLIYKASTLASGVPSRFKGSGSGTQFTLTISDVQCDDAATYYCAGGWRSLNAFGGGTEVVVK
0.062	2.5e-05	403000			rabbit monoclonal antibody 1 (1H3-1K3) (antibody, V domains shown, Recombinant; also called Rabbit 1; clone 1) VH: QSVEESGGRLVTPGTPLTLTCTVSGFSLSRYYMTWVRQAPGKGLEYIGVIIPGGTTYYASWAKGRFTISKTSTTVDLRITSPTTEDTATYFCAGGPTGNSHFTLWGQGTLVTVS VL: VMTQTPSSKSVPVGGTVTINCQASESVYNNNHLSWYQQKSGQPPKLLIYEASKLESGVPPRFKGSGSGTQFTLTISDVVCDDAATYYCSGYKRVTTDGIAFGGGTEVVVK
0.0151	9.04e-06	599000	no binding (tested: 10 ug/ml)	no binding (tested: 10 ug/ml)	rabbit monoclonal antibody 14 (14H1-14K2) (antibody, V domains shown, Recombinant; also called Rabbit 14; clone 14) VH: QEQLEESGGDLVKPEGSLTLTCTASGFSFSSNYVMCWVRQAPGKGLEWVACIWFAGIVDTTYYATWAKGRFTISKTSSTTVTLQMTSLTAADTATYFCARNPVGSVNLWGQGTLVTVS VL: VMTQTPSSKSVPVGGSVTINCQASESVYSNNRLSWYQQKPGQPPKLLIYYASTLESGVPSRFKGSGFGTHFTLTISGAQCDDAATYYCAGWRGARTDGVDFGGGTEVVVK
